In the DeepSol protein solubility set:

Assay: soluble on expression in E. coli; label from the status in PepcDB or PDB records
In the case of “MITIDGNGAVASVAFRTSEVIAIYPITPSSTMAEQADAWAGNGLKNVWGDTPRVVEMQSEAGAIATVHGALQTGALSTSFTSSQGLLLMIPTLYKLAGELTPFVLHVAARTVATHALSIFGDHSDVMAVRQTGCAMLCAANVQEAQDFALISQIATLKSRVPFIHFFDGFRTSHEINKIVPLADDTILDLMPQVEIDAHRARALNPEHPVIRGTSANPDTYFQSREATNPWYNAVYDHVEQAMNDFSAATGRQYQPFEYYGHPQAERVIILMGSAIGTCEEVVDELLTRGEKVGVLKVRLYRPFSAKHLLQALPGSVRSVAVLDRTKEPGAQAEPLYLDVMTALAEAFNNGERETLPRVIGGRYGLSSKEFGPDCVLAVFAELNAAKPKARFTVGIYDDVTNLSLPLPENTLPNSAKLEALFYGLGSDGSVSATKNNIKIIGNSTPWYAQGYFVYDSKKAGGLTVSHLRVSEQPIRSAYLISQADFVGCHQLQFIDKYQMAERLKPGGIFLLNTPYSADEVWSRLPQEVQAVLNQKKARFYVINAAKIARECGLAARINTVMQMAFFHLTQILPGDSALAELQGAIAKSYSSKGQDLVERNWQALALARESVEEVPLQPVNPHSANRPPVVSDAAPDFVKTVTAAMLAGLGDALPVSALPPDGTWPMGTTRWEKRNIAEEIPIWKEELCTQCNHCVAACPHSAIRAKVVPPEAMENAPASLHSLDVKSRDMRGQKYVLQVAPEDCTGCNLCVEVCPAKDRQNPEIKAINMMSRLEHVEEEKINYDFFLNLPEIDRSKLERIDIRTSQLITPLFEYSGACSGCGETPYIKLLTQLYGDRMLIANATGCSSIYGGNLPSTPYTTDANGRGPAWANSLFEDNAEFGLGFRLTVDQHRVRVLRLLDQFADKIPAELLTALKSDATPEVRREQVAALRQQLNDVAEAHELLRDADALVEKSIWLIGGDGWAYDIGFGGLDHVLSLTENVNILVLDTQCYSNTGGQASKATPLGAVTKFGEHGKRKARKDLGVSMMMYGHVYVAQISLGAQLNQTVKAIQEAEAYPGPSLIIAYSPCEEHGYDLALSHDQMRQLTATGFWPLYRFDPRRADEGKLPLALDSRPPSEAPEETLLHEQRFRRLNSQQPEVAEQLWKDAAADLQKRYDFLAQMAGKAEKSNTD”, the “soluble on expression in E. coli” value is reported as “soluble”.
With “MITLPTGTKIWIIAGITDMRCGFNGLASKVQNTLKDDPFSGHIFVFRGRSGKMVKILWADRDGLCLFAKRLAGDPGRESAPDASSVIHATGGDRVATSQTDRTAWHPDITRDKTRE” the “soluble on expression in E. coli” value was “not soluble”.
In the case of “MITTQDKELLAKKGITEAQIAEQLACFQTGFPYLKLDAAASIEKGILAPDAEEKNAYLAAWDAYKNTDKIIVKFVPASGAASRMFKNLFEFLSAEYDKPTTKFEQAFFDGIKDFAFYDDLNVACQRTAGKDIPGLMEEGNYKAVVAALLETAGLNYGALPKGLLKFHKYPEGSRTPLEEHLAEGAMYAAGKSGKVNVHFTVSTEHRELFKKLVEEKAEAFGKRYGVDYYITFSEQKPNTDTIAADMDNQPFRDNGKLLFRPGGHGALIENLNDLDADIIFIKNIDNVVPDKLKADTVTYKKLIAGVLVSLQKKAFEYLELLDSGKYTHEQIMEILQFLQKQLFCKNPETKNLEDAELVIYLKNKLNRPMRVCGMVKNVGEPGGGPFLAYNSDGTISLQILESSQIDMNDPAKKEMFEKGTHFNPVDLVCAVRDYKGHKFDLVKYVDKATGFISYKSKNGKDLKALELPGLWNGAMSDWNTVFVEVPLTTFNPVKTVNDLLREQHQ”, the “soluble on expression in E. coli” value is reported as “not soluble”.
For “MITVPHSRKVELDEIDRAILRLLQEDGRMSYSEISRRINVPESTVRARVNRLVKEGVIRKFAALINPFKAGYEIVAFIAVDAEPAKVKQVVEELAKFPEVDVLGIVTGAHDIFMQVTVKDLQELERFILEKMAKIDGIKSTETSILTSVKKWGYARVF”, the “soluble on expression in E. coli” value was “soluble”.
With “MIVAFCLYKYFPFGGLQRDFMRIASTVAARGHHVRVYTQSWEGDCPKAFELIQVPVKSHTNHGRNAEYYAWVQNHLKEHPADRVVGFNKMPGLDVYFAADVCYAEKVAQEKGFLYRLTSRYRHYAAFERATFEQGKSTKLMMLTDKQIADFQKHYQTEPERFQILPPGIYPDRKYSEQIPNSREIYRQKNGIKEQQNLLLQVGSDFGRKGVDRSIEALASLPESLRHNTLLFVVGQDKPRKFEALAEKLGVRSNVHFFSGRNDVSELMAAADLLLHPAYQEAAGIVLLEAITAGLPVLTTAVCGYAHYIADANCGTVIAEPFSQEQLNEVLRKALTQSPLRMAWAENARHYADTQDLYSLPEKAADIITGGLDG” the “soluble on expression in E. coli” value was “soluble”.
With “MIVIKPFILACLIVKKRKDILGKCLYSLESIGGEIIIVDNGSTDKKKEIAQKLTDKVYDFKWMNNFVEARNFAASKVSGTWIIAVDADECIDINNFVAAMEEIKSYKDKISIFLVEIMSFVGDNGEEITVNTMARLYKNDGSVYFLWWNV” the “soluble on expression in E. coli” value was “not soluble”.
In the case of “MIVSMKKLAQLLLPLLLPFSAEAGGQPDFCKSINHAGGRYTVCSFDPAKNTIRIYDQDHVSGQGYRNFADLSSALWRQHMFSVFAMNGGMYHSDYSPVGLFVENGVERSPVSTRGGWGNFHLLPNGVFYLDGNTAGVLETEAYLAADPKPDFATQSGPMLVIDGKLHPRFLPDSDSLKRRNGVGVSRDGMVHFAISETTVRFYDFGTLFRDVLDAPNALYLDGTISSVDIPAMNRRDQLFSMGPIIAVVDRVPDLEHHHHHH”, the “soluble on expression in E. coli” value is reported as “not soluble”.
With “MIVTVTMNPSIDISYLLDHLKLDTVNRTSQVTKTPGGKGLNVTRVIHDLGGDVIATGVLGGFHGAFIANELKKANIPQAFTSIKEETRDSIAILHEGNQTEILEAGPTVSPEEISNFLENFDQLIKQAEIVTISGSLAKGLPSDFYQELVQKAHAQEVKVLLDTSGDSLRQVLQGPWKPYLIKPNLEELEGLLGQDFSENPLAAVQTALTKPMFAGIEWIVISLGKDGAIAKHHDQFYRVKIPTIQAKNPVGSGDATIAGLAYGLAKDAPAAELLKWGMAAGMANAQERMTGHVDVENVKKHLMNIQVVEIAK” the “soluble on expression in E. coli” value was “not soluble”.
With “MIYAGILAGGTGTRMGISNLPKQFLELGDRPILIHTIEKFVLEPSIEKIVVGVHGDWVSHAEDLVDKYLPLYKERIIITKGGADRNTSIKNIIEAIDAYRPLTPEDIVVTHDSVRPFITLRMIQDNIQLAQNHDAVDTVVEAVDTIVESTNGQFITDIPNRAHLYQGQTPQTFRCKDFMDLYGSLSDEEKEILTDACKIFVIKGKDVALAKGEYSNLKITTVTDLKIAKSMIEKD” the “soluble on expression in E. coli” value was “soluble”.
For “MIYIIGSGIAGLSAGVALRRAGKKVTLISKRIDGGSTPIAKGGVAASVGSDDSPELHAQDTIRVGDGLCDVKTVNYVTSEAKNVIETFESWGFEFEEDLRLEGGHTKRRVLHRTDETGREIFNFLLKLAREEGIPIIEDRLVEIRVKDGKVTGFVTEKRGLVEDVDKLVLATGGYSYLYEYSSTQSTNIGDGMAIAFKAGTILADMEFVQFHPTVTSLDGEVFLLTETLRGEGAQIINENGERFLFNYDKRGELAPRDILSRAIYIEMLKGHKVFIDLSKIEDFERKFPVVAKYLARHGHNYKVKIPIFPAAHFVDGGIRVNIRGESNIVNLYAIGEVSDSGLHGANRLASNSLLEGLVFGINLPRYVDSSWEGISTDDGIVHSVRISGNKTLSLKEIRRINWENVGIIRNEEKLVKAINTYSSSTQNEAIISYLTALAAEIRKESRGNHFREDYPYKDPNWEKRIYFKLVV”, the “soluble on expression in E. coli” value was “soluble”.
For “MIYKACIRKRCGGVCVGEELKPEKIQEIRLGDCPICGGKGTLKAIQFIHRIPYFGEVMESTVVCERCGYRNSDVIILEEREPRLYEVKVEEEKDLFIRVVRSKSGTIELEELGIKIEPGPAAEGFVSNIEGVLERAKEVLLMARDFKEQENDREAVRRIDELLKYIEEVKEGKKPLTVRIMDPFGNSALIGEKVKSRKLTKEEIRKLSKGPYIVIEPDEVPQQLEHHHHHH”, the “soluble on expression in E. coli” value was “not soluble”.
In the case of “MIYSIPFLFFIIVSCSNSSTEMVAKSKYDAKIAEYKELNEQQAAVIEDNLEKSKIINNVVTELNQIAGNTHSLRVNVEHGVGELSQAEEINQKLQTLKKRLSAVEGKRSDGSKNLLATMDKLKSIIEQKEIEINNLKQEIANQQQTIANQKNTIASQQVTIDAQSQELMNKQQEMWYKLGTELHSVVEELPKVKGRKDKRNIKNTRYYILNKAKECFEHAAQLGHSLAGSKARQVEGEMSRL”, the “soluble on expression in E. coli” value is reported as “not soluble”.
In the case of “MKAASYGVPFQSHFGLISTIRGNDGLPRVVVFFQSHFGLISTVKIVEVLEKDEALSIPFWSDFNCHLQMDQRIRLAFFQSHFGLISTGTLQTSGTNANFLSIPFWSDFNLELLKRIKKTKMLFQSHFGLISTRNMVWGRSELQRAIFQSHFGLISTQSSQLTMPVKMQTFNPILV”, the “soluble on expression in E. coli” value is reported as “not soluble”.
In the case of “MKADIARCAYMHAHGGFYFDTDYKLLRPLDAQVLSQHCVLPVEEGAPGQEDFKIGNAVFGSEPGHPFWRAFIEHIFTAHAPETLQDHREIPMISGPRGLTRFYNAHGGQFADILFPPRDAFHPDRTWFGLGHRGGKSAVGSHLCWASWRGKSPRRALTNYLRRKLNAVPILEHHHHHH”, the “soluble on expression in E. coli” value is reported as “not soluble”.
For “MKAEYLQRFGGIARLYGQSALRSFSQAKVCVVGIGGVGSWAAEALARAGINQITLIDMDDICITNTNRQIHAMQGTVGRLKTEVMAERIRAINPDCEVIEVDDFVTADNLAEHIKREFDYVVDAIDSVKAKVALIAFCKRNKIPVIVAGGAGGQMDPTQITVADLAKTIQDPLAAKVRSDLRRLHNFSKNPARKFGVECVFSTEQLSYPDGNGGTCQAKAASDGNMKMDCASGFGAVTPVTATFGLVAASRVLKKIAERGARAEKEAGNEEAGSIGEA”, the “soluble on expression in E. coli” value was “soluble”.
For “MKAFSSYDEKPPAPPIRFSSSATRENQVVGLKPLPKEPEATKKKKTMPNPFMKKNKDKKEASEKPVISRPSNFEHTIHVGYDPKTGEFTGMPEAWARLLTDSQISKQEQQQNPQAVLDALKYYTQGESSGQKWLQYDMNDAPSRTPSYGLKPQPYSTSSLPYHGNKIQDPRKMNPMTTSTSSAGYNSKQGVPPTTFSVNENRSSMPPSYAPPPVPHGETPADIVPPAIPDRPARTLSIYTKPKEEEEKIPDLSKGQFGVQARGQKAKKKMTDAEVLTKLRTIVSIGNPDRKYRKVDKIGSGASGSVYTAIEISTEAEVAIKQMNLKDQPKKELIINEILVMRENKHANIVNYLDSYLVCDELWVVMEYLAGGSLTDVVTECQMEDGIIAAVCREVLQALEFLHSRHVIHRDIKSDNILLGMDGSVKLTDFGFCAQLSPEQRKRTTMVGTPYWMAPEVVTRKQYGPKVDVWSLGIMAIEMVEGEPPYLNENPLRAIYLIATNGKPDFPGRDSMTLLFKDFVDSALEVQVENRWSASQLLTHPFLRCAKPLASLYYLIVAAKKSIAEASNS”, the “soluble on expression in E. coli” value was “not soluble”.
For “MKAIVTLNTTGAQLSVPASSRNLLETLEYHQVPVEYQCRSGYCGSCRMRLLKGEVCYLQQPLAFIQAGEILPCCCQPKGNIEIEF”, the “soluble on expression in E. coli” value was “not soluble”.
For “MKANANAFYAINGNSVIDFKESSKAKDVCEFLGRIKEENEYDPIVVLDNSKTHHADITIKKAKQLDITLVFLPPYSPDLNPIEFIWKSVRKEILKEFIESVTQLRDLIKNEYMKLAKSKSFANNWMKIFDEQIKSVMNSLEHHHHHH”, the “soluble on expression in E. coli” value was “not soluble”.
In the case of “MKAYLHVASGKTFSGELAAPLEEKVSGEIVFFTGMTGYQEVLTDPSYKNQIIVFTYPLIGNYGINENDFESKRPHVEAVVVYEASREGFHYGAKYSLAEYLQHWNIPLLTHVDTRALVKEIRTAGTMMAELSLSPISAVGGEEAVFPVRAVSTKTIETYGEGGPHLVLVDFGYKKSILQSLLARGCRVTVVPHDTTPEAIDALKPDGLVLSNGPGDPKQLRHQLPAIRQLIDRYPTLAICLGHQLVALAYGADTEKLRFGHRGANQPVWDAVKQNVMMTSQNHSYVVKEGSLVGKPFDIRFINVNDGSVEGIVHRHKPILSVQYHPEAHPGPHDTGYIFDEFLQTVFKGENVYA”, the “soluble on expression in E. coli” value is reported as “soluble”.
With “MKAYQRYRFPSLRSVARDASARDSAALAAEAQCADIDARIEEGFRQGREDGYRDGFEHGEAEGMKQGREAGFAAGAQQARDALRSEYAGIAKTLDAMRDAFVRVQAEYLAARRTELVDVVAKVAKQVIRCELTLQPSQMAALIEETLGTMPASSDAPEVHLSPDDHERLAGLLPERARHWRLVPDARLEAGECRVLLGGNEADAGCQHRLDACVERIGEQLPGAPDVEAAAT” the “soluble on expression in E. coli” value was “not soluble”.
